With Human α-thrombin the “cleavage of the peptide by thrombin, HPLC of the intact peptide, 75 µM peptide, 23 nM thrombin, 37 °C” value (BRI-T218) was “completely converted to the cleavage products within two hours under the specific experimental conditions” and the “cleavage of the peptide by thrombin, HPLC of the intact peptide, 75 µM peptide, 23 nM thrombin, 37 °C” value (BRI-T208) was “BRI-T208 is significantly more resisitent to thrombin cleavage than BRI-T218”.
